In general, Kd refers to the concentration at which binding is half-saturated. A low value points to tighter binding. In general, koff refers to the first-order rate constant of dissociation. A low value points to a long-lived complex. Usually kon stands for the second-order rate constant of association. A low value points to slow association.

For assay [1], the target named is Aβ42 fibrils (immobilized Aβ(1-42) fibrils) (UniProt P05067). The assay is described as follows: SPR, Aβ42 fibrils immobilized, Langmuir 1:1 fit, curves fitted separately; upper end of the range from curves fitted separately (1, 3, 6 µM RI-OR2-TAT).
Assay [2] has the same target. The assay is described as follows: SPR, Aβ fibrils (summary of the Examples). For orientation: In SPR one partner is held on a chip, and binding of the other changes the refractive index at the surface.
Assay [3] has the same target. Kind of assay: SPR (Sensi Q), immobilized Aβ(1-42) fibrils, fit of a single curve; inset table row 2 (the row's concentration, 1 or 3 µM, is not given).
Assay [4] shares this target. The assay is described as follows: SPR (Sensi Q), immobilized Aβ(1-42) fibrils, fit of a single curve; (the concentration, 1 or 3 µM, is not given).
For assay [5] the target is unchanged. The assay is described as follows: SPR, Aβ42 fibrils immobilized, Langmuir 1:1 fit.
The target is the same in assay [6]. The assay is described as follows: SPR, Aβ42 fibrils immobilized, Langmuir 1:1 fit, curves fitted separately; lower end of the range from curves fitted separately (1, 3, 6 µM RI-OR2-TAT).

Sequence of Aβ42 fibrils (immobilized Aβ(1-42) fibrils) (P05067 672-713 limits assumed): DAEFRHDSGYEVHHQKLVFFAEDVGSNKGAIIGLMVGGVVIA

As for “RI-OR2-TAT (Ac-rGffvlkGrrrrqrrkkrGy-NH2) (peptide)”, the Kd in assay [1] is 58 to 125 nM; in assay [2], 41 to 75 nM; in assay [3] it was 41.5 nM; in assay [4], 75.6 nM; in assay [6] it was 58 to 125 nM. Also, the koff came to 0.000994 s⁻¹ in assay [3], 0.00096 s⁻¹ in assay [4] and 0.00037 s⁻¹ in assay [5]. The kon is 23900 M⁻¹ s⁻¹ in assay [3], 12700 M⁻¹ s⁻¹ in assay [4] and 3680 M⁻¹ s⁻¹ in assay [5].

The substance “PINPs (Peptide Inhibitor NanoParticles): RI-OR2-TAT covalently attached to nanoliposomes” came in with a Kd in assay [2] of 14 to 44 nM. In assay [3], this substance came in with a dissociation constant Kd of 44.7 nM, an off-rate constant (koff) of 5.31e-05 s⁻¹ and an on-rate constant (kon) of 1190 M⁻¹ s⁻¹. In addition, in assay [4], the equilibrium dissociation constant (Kd) came to 14.8 nM, the koff was determined as 6.71e-05 s⁻¹ and the association rate constant (kon) is 4520 M⁻¹ s⁻¹.

These data come from US20140356418A1.
